From the nanobody polyreactivity screen of Harvey et al. (2022)

experiment: yeast display, Sf9 membrane polyspecificity reagent, FACS + sequencing; frameworks hold sequencing errors
How it was run: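 Synthetic nanobody libraries on Saccharomyces cerevisiae BJ5465 were galactose-induced for 36–48 hours, stained 1 hour at 4 °C with 10% biotinylated, detergent-solubilized Sf9 membrane reagent and enriched on streptavidin microbeads. FACS then separated cells into low and high (top ~1%) gates by anti-HA (expression) and streptavidin (reagent binding) fluorescence. Genes were colony-PCR amplified, MiSeq 2 × 250 sequenced and CDR-length filtered. A clone's polyreactivity label is that of its gate of origin.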

Sequence	polyreactivity (PSR sort gate)
QVQLVESGGGLVQAGGSLRLSCAASGFTFIRNAMGWYRQAPGKERELVAAISKRGGSTNYADSVKGRFTISRDNAKNTVYLQMNSLKPEDTAVYYCAAGGQVAWLDYYPMDYWGQGTQVTVSS	low polyreactivity
QVQLVESGGGLVQAGGSLRLSCAASGFTFIRSAMGWYRQAPGKGRELVAAITVSGTRTYYADSVKGRFTISRDNAKNTVYLQMNSLKPEDTAVYYCNARDVYTGYGMGYWGQGTQVTVSS	high polyreactivity
QVQLVESGGGLVQAGGSLRLSCAASGFTFIRYAMGWYRQAPGKERELVATITRRGGSTYYADSVTGRFTISRDNAKNTVYFQMNSLKPEDTAVYDCNRDYVTYGQYYYWGQGTQVTVSS	high polyreactivity
QVQLVESGGGLVQAGGSLRLSCAASGFTFIRYARGWYRPAPGKERELVAAIRGTGTSTYYADSVKGRFTISRDNAKNTVYLQMNSLKPEDTAVDYCNTVAGRSPYTRYDYWGQGTQVTVSS	low polyreactivity
QVQLVESGGGLVQAGGSLRLSCAASGFTFISYAMGWYRQAPGKERELVAVINQRGGRTYYADSVKGRFTISRDNAKNTVYLQMNSLKPEDTAVYYCATRLKSVSGGYNYWGQGTQVTVSS	high polyreactivity
QVQLVESGGGLVQAGGSLRLSCAASGFTFITNAMGWYRQAPGKERELVASISIGGSTNYADSVKGRFTISRDNAKNTVYLQMNSLKPEDTAVYYCAARVYRRLFLPGRYGRPLGYWGQGTQVTVSS	high polyreactivity
QVQLVESGGGLVQAGGSLRLSCAASGFTFIYNAMGWYRQAPGKERELVAAISRGASTNYADSVKGRFTISRDNAKNTVYLQMNSLKPEDTAVYYCAKRTTRLAPYDYWGQGTQVTVSS	high polyreactivity
QVQLVESGGGLVQAGGSLRLSCAASGFTFIYYAMGWYRQAPGKERELVAAISSRTGRTYYADSVKGRFTISRDNAKNTVYLQMNSLKPEDTAVYYCNADRNWRSGKFNYWGQGTQVTVSS	high polyreactivity
QVQLVESGGGLVQAGGSLRLSCAASGFTFIYYAMGWYRQARGKERELVAAISRGDSTYYADSVKGRFTISRDNAKNTVYLQMISLKPEDTAVYYCAAASHVRRDHGYWGEGTQVTVSS	low polyreactivity
QVQLVESGGGLVQAGGSLRLSCAASGFTFKFNAMGWYRQAPGKEREFVAAISYSGGSTYYADSVKGRFTISRDNAKNTVYLQMNSVKPEDTAVYYCAARAYWYGASYYYWGQGTQVTVSS	high polyreactivity
QVQLVESGGGLVQAGGSLRLSCAASGFTFKFYAMGWYRPAPGKERELVAAISSGGASTYYADSVKGRFTISRDNAKNTVYLQMNSLKPEDTAVYYFAARSGGPSDGSGYWGQGTEVTVSS	low polyreactivity
QVQLVESGGGLVQAGGSLRLSCAASGFTFKFYAMGWYRQAPGKERELVAAISWSGGSTYYADSVKGRFTISRDNAKNTVYLQMNSLKPEDTAVYYFAKRGGRQTYYYWGLGTQVTVSS	high polyreactivity
QVQLVESGGGLVQAGGSLRLSCAASGFTFKGNAMGWYRQAPGKERELVATITQSAGSTYYADSVKGRFTISRDNAKNTVYLQMNSLKPEDTAVYYCNADPITLYYYSWYNYWGQGTQVTVSS	low polyreactivity
QVQLVESGGGLVQAGGSLRLSCAASGFTFKGNTMGWYRQAPGKERELVANITRGGTTYYADSVKGRFTISRDNAKNTVYLQMNSLKPEDTAVYYCAARNWPSRGYNYWGQGTQVTVSS	high polyreactivity
QVQLVESGGGLVQAGGSLRLSCAASGFTFKLYAMGWYRQAPGKERELVAVITTSGGRTYYADSVKGRFTISRDNANNTVYLQMTSLKPEDTAVYYCAKVVFVRVAPGYYWGQGTQVTVSS	high polyreactivity
QVQLVESGGGLVQAGGSLRLSCAASGFTFKSNAMGGYRQAPGKEREKVAAIDSRGDRTYYADSVKGRFTISRDNAKNTVYLQMNSLKPEDTAVYYCATKWRTYWSSGEYWGQGTQVTVSS	high polyreactivity
QVQLVESGGGLVQAGGSLRLSCAASGFTFKSYAMGWYRQAPGKERELVAAINRSGGSTYYADSVKGRFTISRDNAKNTVYLQMNSLKPEDTAVYYCAAVKPPDYYYWGQGTQVTVSS	high polyreactivity
QVQLVESGGGLVQAGGSLRLSCAASGFTFKTNARGWYRQAPVTERELVAAITGSGSSTYYADSVKGRFTISRDNAKNTVYLQMNSLKPEDTAVYYCAASRVYKYYWGQGTEVTVSS	high polyreactivity
QVQLVESGGGLVQAGGSLRLSCAASGFTFKTYAMGSYRPAPGKEREFVAAISSRGGSTYYSDSVKGRFTISRDNAKNTVYLQMHSLKPEDTAVYYCATATRPRDRYSRYGYWGQGTQVTVSS	high polyreactivity
QVQLVESGGGLVQAGGSLRLSCAASGFTFKTYAMGWYRQAPGKEREFVAAISSRGGSTYYADSVKGRFTISRDNAKNTVYLQMNSLKPEDTAVYYCATATRPRDRYSRYGYWGQGTQVTVSS	high polyreactivity
QVQLVESGGGLVQAGGSLRLSCAASGFTFKTYVMGWYRQAPGKERELVAAISRRGGSTHYADSVKGRFTISRDNAKNTVYLQMNSLKPEVTAVYYCAARHPFAGTVWGVVSYDYWGQGTLVTVSS	high polyreactivity
QVQLVESGGGLVQAGGSLRLSCAASGFTFKWYTRGWYRQAPGKERELVAAISTRGGSTYYADSVKGRFTISRDNAKNTVYLQMNSLKPEDTAVYYCAAVYRRGSGYDYWGQGTQVTVSS	high polyreactivity

Sequence	polyreactivity (PSR sort gate)
QVQLVESGGGLVQAGGSLRLSCAASGFTFKYKAMGWYRQAPGKERELVAVISSSGGRTYYADSVKGRFTISRDNAKNTVYLQMNSLKPEDTAVYYCAADTFVWADWSWHYYWRQGTQVTVSS	high polyreactivity
QVQLVESGGGLVQAGGSLRLSCAASGFTFKYYAMGWYRQAPGKERELVAAIRRSAGSTNYADSVKGRFTISRDNAKNTVYLQMNSLKPEDTAVYYCNTVGTRQPMDYWGQGTQVTVSS	high polyreactivity
QVQLVESGGGLVQAGGSLRLSCAASGFTFKYYAMGWYRQAPGKERELVAAISSGVSTNYADSVKGRFTISRDNAKNTVYLQMNSLKPEDTAVYYCNAEVFWWDQWYDYWGQGTQVTVSS	high polyreactivity
QVQLVESGGGLVQAGGSLRLSCAASGFTFKYYAMGWYRQAPGKERELVASISYSGGRTSYADSVKGRFTISRDNAKNTVYLQMNSLKPEDTAVYYCNADVRRIDYKSRQYDYWGQGTQVTVSS	high polyreactivity
QVQLVESGGGLVQAGGSLRLSCAASGFTFKYYAMGWYRQAPGKERELVAVINQSGGSTSYADSVKGRFTISRDNAKNTVYLQMNSLKPEDTAVYYCAALVGLFWLWNYDYWGQGTQVTVSS	high polyreactivity
QVQLVESGGGLVQAGGSLRLSCAASGFTFKYYAMGWYRQAPGKERELVAVISSSGGSTYYADSVKGRFTISRDNAKNTVYLQMNSLKPEDTAVYYCNTDAYWHRQQYDYWGQGTQVTVSS	low polyreactivity
QVQLVESGGGLVQAGGSLRLSCAASGFTFKYYVKGWYRQAPGKERELVAAISSNGGTTYYADSVKGRFTISRDNAKNTVYVQMNSLKPEDTAVYYCAAEPGQEYVVGYSYWGQGSQVTVSS	high polyreactivity
QVQLVESGGGLVQAGGSLRLSCAASGFTFLKYAMGGYRQAPGKERDLVARITSGGRTYYADSVKGRFTISRDNAKNTVYLQMNSLKPEDTAVYYCNAVKSYASLYAVFYDWGQGTQVTVSS	high polyreactivity
QVQLVESGGGLVQAGGSLRLSCAASGFTFLKYAMGWYRQAPGKERELVAAISWSGGRTFYADSVKGRFTISRDNAKNTVYLQMISLKPEDTAVYYCATRTRGSVYRFDYWGQGTQVTVSS	high polyreactivity
QVQLVESGGGLVQAGGSLRLSCAASGFTFLRYAMGWYRQAPGKERELVAAITGSGGSTYYADSVKGRFTISRDNAKNTVYLQMNSLKPEDTAVYYCSIVSKFTGDYGYWGQGTQVTVSS	high polyreactivity
QVQLVESGGGLVQAGGSLRLSCAASGFTFLSNDMGWYRQSPGKERELVAGINFSGDGTYYADSVKGRFTISRDNAKNPVYLQMNSLKPEDSAVYYCAAGWLPKYGYWGKGTQVTVSS	low polyreactivity
QVQLVESGGGLVQAGGSLRLSCAASGFTFLTNAMGWYRQAPGKERELVAAISSGGNTNYADSVKGRFTISRDNAKNTVYLQMNSLKPEDTAVYYCAADNDYLSSQVSYDYWGQGTQVTVSS	low polyreactivity
QVQLVESGGGLVQAGGSLRLSCAASGFTFLVNAMGWYRQAPGKERELVAAISSGGSTYYADSVKGRFTISRDNAKNTVYLQMNSLKPEDTAVYYCAAPTDFLFWEFDYWGQCTQVTVSS	low polyreactivity
QVQLVESGGGLVQAGGSLRLSCAASGFTFLVYAMGWYRQAPGKERELVAAISRRGCSTYYADSVKGRFTISRDNAKNTVYLQMNSLKPEDTSVYYCNKYRQQGWEFDYWGQGTQVTVSS	high polyreactivity
QVQLVESGGGLVQAGGSLRLSCAASGFTFLYGMGWYRQAPGEERELVAAISNTGGSTYYADSVKGRFTISRDNAKNTVYLQMNSLKPEDTAVYYCAADGGQWWVFYALDFWGQGTQVTVSS	low polyreactivity
QVQLVESGGGLVQAGGSLRLSCAASGFTFLYYAMGWYRPAPGKERELVAAISASSDRTYYADSVKGRFTISRDNAKNTVYLQMNSLKPEDTAVYYCAAYNSRVGGYRGYGYWGQGTQVTVSS	high polyreactivity
QVQLVESGGGLVQAGGSLRLSCAASGFTFLYYDMGWYRQAPGKERELVAAITNDDSTYYADSVKGRFTISRDNAKNTVYLQMNSLKPEDTAVYYCNADVWYYTPYDYWGQVTQVTVSS	high polyreactivity
QVQLVESGGGLVQAGGSLRLSCAASGFTFNDNAMGWYRQAPGKERELVAAITYGGSTYYADSVKGRFTISRDNAKNTVYLQMNSLKPEDTAVYYCARDLSAGPGRDYWGQGTQVTVSS	low polyreactivity
QVQLVESGGGLVQAGGSLRLSCAASGFTFNKYAMGCYRQAPGKERELVAAISGSGGRTYYADSVKGRFTISRDNAKNTVYLQMNSLKPEDTAVYYCAAQRSVKVDYWGQGTQVTVSS	high polyreactivity
QVQLVESGGGLVQAGGSLRLSCAASGFTFNNNAMGWYRQAPGKERELVAAISSSGGNTYYADSVKGRFTISRDNAKNTVYLQMNSLKPEDTAVYYCNAGKRQRGEYWGQGTQVTVSS	high polyreactivity
QVQLVESGGGLVQAGGSLRLSCAASGFTFNRYAMGWYRQAPGKERELVAAITSGGRTYYADSVKGRFTISRDNAKNTVYLQMNSLKPEDTAVYYCATLYVRNVSGYDYWGQGTQVTVSS	high polyreactivity
